The results in this text go back to the RNAGym collection of RNA variant scans (doi:10.1093/molbev/msab373).

The labels stand for the following.
B1: Azoarcus group I ribozyme (parent)
chain: GUGCCUUGCGCCGGGAAACCACGCAAGGGAUGGUGUCAAAUUCGGCGAAACCUAAGCGCCCGCCCGGGCGUAUGGCAACGCCGAGCCAAGCUUCGGCGCCUGCGCCGAUGAAGGUGUAGAGACUAGACGGCACCCACCUAAGGCAAACGCUAUGGUGAAGGCAUAGUCCAGGGAGUGGCGAAAGUCACACAAACCGG

Variants of B1 are the subject of the series. Kind of series: reverse-splicing fitness (ratio to wild type); higher = more active; in vitro selection; Mg2+ level not given. In a few lines: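 An in vitro group I ribozyme library with randomized positions was T7-transcribed and gel-purified. In triplicate, 10 pmol RNA in EPPS pH 7.5 was reacted with 50 pmoles of a 30-nt RNA substrate for 1 h at 37 °C across several added MgCl2 levels (1–48 mM), then stopped with EDTA. Products were reverse transcribed from a substrate-complementary primer, PCR-amplified and sequenced (HiSeq 4000). Fitness is a variant's read proportion after selection over that before, normalised to wild type.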
Regarding C82G A111U A145C C150U C169G U176G, the reverse-splicing fitness was found to be 0.00635.

With C82G A111U A145C C150U C169G U176A, the reverse-splicing fitness was 0.022.

In the case of C82G A111U A120U A145U C150U U176G, the reverse-splicing fitness was 0.00302.

On to C82G A111U A120U A145U C150U U176C, for which the reverse-splicing fitness was 0.0131.

As to C82G A111U A120U A145U C150U U176A, the reverse-splicing fitness was found to be 0.00894.

With C82G A111U A145C C169U U176A, the reverse-splicing fitness was 0.014.

Take C82G A111U A145C C169U U176C: the reverse-splicing fitness came out at 0.0119.

Consider C82G A111U A145C C169U U176G, for which the reverse-splicing fitness was determined as 0.00474.

In the case of C82G A111U A120U C150G C169A U176A, the reverse-splicing fitness was 0.00533.

On to C82G A111U A120U C150G C169A U176G, for which the reverse-splicing fitness worked out at 0.00291.

As to C82G A111U A120U C150G C169A U176C, the reverse-splicing fitness came to 0.00545.

Regarding C82G A111U A145G C150G C169U U176C, the reverse-splicing fitness came to 0.0134.

Take C82G A111U A145G C150G C169U U176G: the reverse-splicing fitness was found to be 0.00808.

Turning to C82G A111U A145G C150G C169U U176A, the reverse-splicing fitness came to 0.0125.

As for C82G A111U A145C C169G U176A, the reverse-splicing fitness was 0.0258.

On to C82G A111U A145C C169G U176G, for which the reverse-splicing fitness stood at 0.00528.

Turning to C82G A111U A145C C169G U176C, the reverse-splicing fitness stood at 0.0144.

Take C82G A111U A120U C150A C169U U176C: the reverse-splicing fitness is 0.00482.

Take C82G A111U A120U C150A C169U U176G: the reverse-splicing fitness was 0.00236.

In the case of C82G A111U A120U C150A C169U U176A, the reverse-splicing fitness was 0.00604.

Turning to C82G A111U A145G C150G C169A U176C, the reverse-splicing fitness was determined as 0.0129.

Consider C82G A111U A145G C150G C169A U176A, for which the reverse-splicing fitness was found to be 0.0133.

Regarding C82G A111U A145G C150G C169A U176G, the reverse-splicing fitness amounted to 0.00877.

As for C82G A111U A120U A145U C150A C169U, the reverse-splicing fitness came out at 0.00264.

C82G A111U A120U A145U C150A C169G: the reverse-splicing fitness turned out to be 0.00289.

Consider C82G A111U A120U A145U C150A C169A, for which the reverse-splicing fitness worked out at 0.00224.

C82G A111U A145G C150G U176A: the reverse-splicing fitness is 0.0137.

As for C82G A111U A145G C150G U176G, the reverse-splicing fitness stood at 0.00893.

Consider C82G A111U A145G C150G U176C, for which the reverse-splicing fitness was determined as 0.0285.

With C82G A111U A145G U176A, the reverse-splicing fitness stood at 0.197.

Regarding C82G A111U A145G U176C, the reverse-splicing fitness worked out at 0.244.

With C82G A111U A145G U176G, the reverse-splicing fitness amounted to 0.061.

Consider C82G A111U A120U C150A C169G U176G, for which the reverse-splicing fitness turned out to be 0.00223.

As to C82G A111U A120U C150A C169G U176A, the reverse-splicing fitness came out at 0.00827.

Take C82G A111U A120U C150A C169G U176C: the reverse-splicing fitness was 0.00406.

Turning to C82G A111U A145U C150G C169G U176G, the reverse-splicing fitness stood at 0.00649.

Turning to C82G A111U A145U C150G C169G U176C, the reverse-splicing fitness turned out to be 0.00646.

Regarding C82G A111U A145U C150G C169G U176A, the reverse-splicing fitness came out at 0.0083.

In the case of C82G A111U A120U C169A U176A, the reverse-splicing fitness was determined as 0.00362.

Turning to C82G A111U A120U C169A U176C, the reverse-splicing fitness turned out to be 0.00299.

Turning to C82G A111U A120U C169A U176G, the reverse-splicing fitness turned out to be 0.00169.

Take C82G A111U A120U A145U C150G C169G: the reverse-splicing fitness worked out at 0.00336.

As to C82G A111U A120U A145U C150G C169U, the reverse-splicing fitness worked out at 0.0032.

For the variant C82G A111U A120U A145U C150G C169A, the reverse-splicing fitness amounted to 0.00362.

On to C82G A111U A120U C150G C169U, for which the reverse-splicing fitness came out at 0.00549.

For C82G A111U A120U C150G C169G, the reverse-splicing fitness was 0.0064.

With C82G A111U A120U C150G C169A, the reverse-splicing fitness came out at 0.00722.

Regarding C82G A111U A120U C150G C169G U176A, the reverse-splicing fitness is 0.00513.

With C82G A111U A120U C150G C169G U176C, the reverse-splicing fitness came out at 0.00362.

As to C82G A111U A120U C150G C169G U176G, the reverse-splicing fitness is 0.003.

For C82G A111U A145U C150A C169G U176G, the reverse-splicing fitness was 0.0066.

Consider C82G A111U A145U C150A C169G U176A, for which the reverse-splicing fitness is 0.014.

In the case of C82G A111U A145U C150A C169G U176C, the reverse-splicing fitness worked out at 0.0144.

Turning to C82G A111U A120U C150U C169U U176A, the reverse-splicing fitness was 0.0052.

Regarding C82G A111U A120U C150U C169U U176G, the reverse-splicing fitness is 0.00215.

As for C82G A111U A120U C150U C169U U176C, the reverse-splicing fitness amounted to 0.00402.

As to C82G A111U A145U C150G C169U U176A, the reverse-splicing fitness amounted to 0.00836.

For the variant C82G A111U A145U C150G C169U U176C, the reverse-splicing fitness was 0.0115.

For the variant C82G A111U A145U C150G C169U U176G, the reverse-splicing fitness turned out to be 0.00664.

As for C82G A111U A120U A145G C150U C169A U176G, the reverse-splicing fitness came out at 0.00276.

Turning to C82G A111U A120U A145G C150U C169A U176C, the reverse-splicing fitness was 0.00451.

With C82G A111U A120U A145G C150U C169A U176A, the reverse-splicing fitness stood at 0.0082.

Consider C82G A111U A120U A145U C150G C169A U176A, for which the reverse-splicing fitness worked out at 0.00343.

Consider C82G A111U A120U A145U C150G C169A U176G, for which the reverse-splicing fitness is 0.00233.

Take C82G A111U A120U A145U C150G C169A U176C: the reverse-splicing fitness amounted to 0.00246.

Turning to C82G A111U A145G C150U C169A U176A, the reverse-splicing fitness was 0.0163.

With C82G A111U A145G C150U C169A U176G, the reverse-splicing fitness was found to be 0.00701.

C82G A111U A145G C150U C169A U176C: the reverse-splicing fitness worked out at 0.0164.

In the case of C82G A111U A145C C150G C169G U176A, the reverse-splicing fitness is 0.00943.

As to C82G A111U A145C C150G C169G U176C, the reverse-splicing fitness was determined as 0.00772.

In the case of C82G A111U A145C C150G C169G U176G, the reverse-splicing fitness worked out at 0.00602.

With C82G A111U A145G C150U C169G, the reverse-splicing fitness is 0.00982.

Turning to C82G A111U A145G C150U C169U, the reverse-splicing fitness is 0.0119.

Regarding C82G A111U A145G C150U C169A, the reverse-splicing fitness was found to be 0.0114.

For the variant C82G A111U A120U A145U C150U C169G U176C, the reverse-splicing fitness was 0.00287.

On to C82G A111U A120U A145U C150U C169G U176G, for which the reverse-splicing fitness came out at 0.00218.

Consider C82G A111U A120U A145U C150U C169G U176A, for which the reverse-splicing fitness was 0.00344.

C82G A111U A145G C150U: the reverse-splicing fitness is 0.298.

C82G A111U A145G C150G: the reverse-splicing fitness turned out to be 0.0339.

Take C82G A111U A145G C150A: the reverse-splicing fitness is 0.0434.

Turning to C82G A111U A145U C150A C169G, the reverse-splicing fitness was 0.00845.

With C82G A111U A145U C150A C169A, the reverse-splicing fitness amounted to 0.0096.

On to C82G A111U A145U C150A C169U, for which the reverse-splicing fitness was determined as 0.00955.

Turning to C82G A111U A145C C169A U176A, the reverse-splicing fitness amounted to 0.0121.
